From patent US20260167959A1, “APTAZYME-BASED REGULATABLE GENE EXPRESSION SYSTEMS” (REJUVENATE BIO INC, priority 2022, published 2026)

B1: RA378 (nucleic acid)
DNA: GCGCGTCCTGGATTCGCGGAAACGCGTACATCCCGGAATACCAGCATCGTCTTGATGCCCTTGGAAGTCCGGCAGCTGACGAGTCCCAAATAGGACGAAACGCGC
modifications: expressed or natural sequence
B2: RA376 (nucleic acid)
DNA: GCGCGTCCTGGATTCGCGGAAACGCGTACATCCAGCTGAAGAATACCAGCATCGTCTTGATGCCCTTGGAAGTCTCGAGTCCCAAATAGGACGAAACGCGC
modifications: expressed or natural sequence
B3: RA375 (nucleic acid)
DNA: GCGCGTCCTGGATTCGCGGAAACGCGTACATCCAGCTCCGGAATACCAGCATCGTCTTGATGCCCTTGGAAGTCCGGGACGAGTCCCAAATAGGACGAAACGCGC
modifications: expressed or natural sequence
B4: RA360 (nucleic acid)
DNA: GCAGAATACCAGCATCGTCTTGATGCCCTTGGAAGTCTGCGTCCTGGATTCGCGGAAACGCGTACATCCAGCTGACGAGTCCCAAATAGGACGAAACGCGC
modifications: expressed or natural sequence
B5: RA361 (nucleic acid)
DNA: GCGCGTCCTGGATTCGCGGAAACGCGTACATCCAGCTGACGAGTCCCAAATAGGACGAAACGCCCGGAATACCAGCATCGTCTTGATGCCCTTGGAAGTCCGGGC
modifications: expressed or natural sequence
B6: RA366 (nucleic acid)
DNA: GCGCGTCCTGGATTCGCGGAAGAGAATACCAGCATCGTCTTGATGCCCTTGGAAGTCTCACGCGTACATCCAGCTGACGAGTCCCAAATAGGACGAAACGCGC
modifications: expressed or natural sequence
B7: RA374 (nucleic acid)
DNA: GCGCGTCCTGGATTCGCGGAAACGCGTACATCCAGCTGCCGGAATACCAGCATCGTCTTGATGCCCTTGGAAGTCCGGACGAGTCCCAAATAGGACGAAACGCGC
modifications: expressed or natural sequence
B8: RA363 (nucleic acid)
DNA: GCGCGTCCTGGATTCGCGGAAACGCGTACATCCAGCTGACGAGTCCCACGGAATACCAGCATCGTCTTGATGCCCTTGGAAGTCCGAATAGGACGAAACGCGC
modifications: expressed or natural sequence
B9: RA373 (nucleic acid)
DNA: GCGCGTCCTGGATTCGCGGAAACGCGTACATCCAGCTGACGAGTCCCAAGTGATACCAGCATCGTCTTGATGCCCTTGGCAGCACTAATAGGACGAAACGCGC
modifications: expressed or natural sequence
B10: RA370 (nucleic acid)
DNA: GCGCGTCCTGGATTCGCGGAAACGCGTACATCCAGCTGACGAGTCCCAAATAGGACGAAACGGGAATACCAGCATCGTCTTGATGCCCTTGGAAGTCCCGC
modifications: expressed or natural sequence
B11: RA371 (nucleic acid)
DNA: GCGCGTCCTGGATTCGCGGAAACGCGTACATCCAGCTGACGAGTCCCAAAAGAATACCAGCATCGTCTTGATGCCCTTGGAAGTCTTAGGACGAAACGCGC
modifications: expressed or natural sequence
B12: RA372 (nucleic acid)
DNA: GCGCGTCCTGGATTCGCGGAAACGCGTACATCCAGCTGACGAGTCCCAAACGAGAATACCAGCATCGTCTTGATGCCCTTGGAAGTCTCGTAGGACGAAACGCGC
modifications: expressed or natural sequence
B13: RA369 (nucleic acid)
DNA: GCGCGTCCTGGATTCGGAATACCAGCATCGTCTTGATGCCCTTGGAAGTCCGCGCGGAAACGCGTACATCCAGCTGACGAGTCCCAAATAGGACGAAACGCGC
modifications: expressed or natural sequence
B14: RA364 (nucleic acid)
DNA: GCGCGTCCTGGATTCGCGGAAACGCGTGGAATACCAGCATCGTCTTGATGCCCTTGGAAGTCCACATCCAGCTGACGAGTCCCAAATAGGACGAAACGCGC
modifications: expressed or natural sequence
B15: RA367 (nucleic acid)
DNA: GCGCGTCCTGGATGGAATACCAGCATCGTCTTGATGCCCTTGGAAGTCCTCGCGGAAACGCGTACATCCAGCTGACGAGTCCCAAATAGGACGAAACGCGC
modifications: expressed or natural sequence
B16: RA362 (nucleic acid)
DNA: GCGCGTCCTGGAGGAATACCAGCATCGTCTTGATGCCCTTGGAAGTCCTTCGCGGAAACGCGTACATCCAGCTGACGAGTCCCAAATAGGACGAAACGCGC
modifications: expressed or natural sequence
B17: RA368 (nucleic acid)
DNA: GCGCGTCCTGGATTCGCGGAAACGCGTACATCCAGCTGACGAGTCCCGAGAATACCAGCATCGTCTTGATGCCCTTGGAAGTCTCGCAAATAGGACGAAACGCGC
modifications: expressed or natural sequence
B18: RA377 (nucleic acid)
DNA: GCGCGTCCTGGATTCGCGGAAACGCGTACATCCAGCTGACGAGTCCCAAATAGGACGGAGAATACCAGCATCGTCTTGATGCCCTTGGAAGTCTCAAACGCGC
modifications: expressed or natural sequence
B19: RA365 (nucleic acid)
DNA: GCGAGAATACCAGCATCGTCTTGATGCCCTTGGAAGTCTCGTCCTGGATTCGCGGAAACGCGTACATCCAGCTGACGAGTCCCAAATAGGACGAAACGCGC
modifications: expressed or natural sequence
B20: RA036 (nucleic acid)
DNA: GCGCGTCCTGGATTCGCGGAAACGCGTACATCCAGCTGACGAGTCCCAAATAGGCGAGAATACCAGCATCGTCTTGATGCCCTTGGAAGTCTCGACGAAACGCGC
modifications: expressed or natural sequence
B21: RA003 (nucleic acid)
DNA: GCGCGTCCTGCGGAATACCAGCATCGTCTTGATGCCCTTGGAAGTCCGGATTCGCGGAAACGCGTACATCCAGCTGACGAGTCCCAAATAGGACGAAACGCGC
modifications: expressed or natural sequence

What follows are molecules tested on Renilla luciferase RNA (assay: Barcoded aptazyme variant library screen: un-cleaved Renilla luciferase RNA by barcode read counts, HEK293-T cells). Conditions: un-cleaved Renilla luciferase RNA by barcode read counts; with 1 mM theophylline (ON) over without theophylline (OFF); HEK293-T cells; triplicate.
Type: cell-based
Outline: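 Barcode sequencing of cDNA versus DNA, normalized per aptazyme, gave the un-cleaved Renilla luciferase RNA fraction and fold-change with versus without theophylline (triplicates). Library: T3H48 ribozyme with one of seven theophylline aptamer variants inserted at each position, placed in the Renilla 3′ UTR of a dual-luciferase vector.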

Molecule | Fold change in RNA expression between the ON state and the OFF state
B1 | 0.8
B2 | 0.8
B3 | 0.8
B4 | 0.8
B5 | 0.8
B6 | 0.8
B7 | 0.8
B8 | 0.8
B9 | 0.8
B10 | 0.8
B11 | 0.8
B12 | 0.8
B13 | 0.8
B14 | 0.8
B15 | 0.8
B16 | 0.8
B17 | 0.8
B18 | 0.8
B19 | 0.8

Same assay, conditions: un-cleaved Renilla luciferase RNA, HEK293-T cells cultured with 1 mM theophylline (ON) over without theophylline (OFF); barcode read counts, triplicate

Molecule | Fold change in RNA expression between the ON state and the OFF state
B20 | 2.2 fold
B21 | 5.5 fold
